Patent US20240271091A1 (University of Pennsylvania, published 2024)
No end group written: not given here.

Biological target: BSA (UniProt P02769 25-607)
Assay: UV photocrosslinking of hIgG2 in the presence of BSA

B1: photoreactive Protein G (pAbBD), BPA position not stated (designed binder)
chain: MTFKLIINGKTLKGEITIEAVDAAEAEKIFKQYANDYGIDGEWTYDDATKTFTVTE
modifications: also: contains benzoylphenylalanine (BPA), position not given here
Q: Does B1 bind?
A: no binding (tested: 1% BSA solution (200-times molar excess))
